Experimental findings from US20210369822A1 (published 2021) are described below.

In the experiment the target is hERG (UniProt Q12809 1-1159). Kind of experiment: cell-based or functional assay.
hERG, sequence (Q12809 whole entry): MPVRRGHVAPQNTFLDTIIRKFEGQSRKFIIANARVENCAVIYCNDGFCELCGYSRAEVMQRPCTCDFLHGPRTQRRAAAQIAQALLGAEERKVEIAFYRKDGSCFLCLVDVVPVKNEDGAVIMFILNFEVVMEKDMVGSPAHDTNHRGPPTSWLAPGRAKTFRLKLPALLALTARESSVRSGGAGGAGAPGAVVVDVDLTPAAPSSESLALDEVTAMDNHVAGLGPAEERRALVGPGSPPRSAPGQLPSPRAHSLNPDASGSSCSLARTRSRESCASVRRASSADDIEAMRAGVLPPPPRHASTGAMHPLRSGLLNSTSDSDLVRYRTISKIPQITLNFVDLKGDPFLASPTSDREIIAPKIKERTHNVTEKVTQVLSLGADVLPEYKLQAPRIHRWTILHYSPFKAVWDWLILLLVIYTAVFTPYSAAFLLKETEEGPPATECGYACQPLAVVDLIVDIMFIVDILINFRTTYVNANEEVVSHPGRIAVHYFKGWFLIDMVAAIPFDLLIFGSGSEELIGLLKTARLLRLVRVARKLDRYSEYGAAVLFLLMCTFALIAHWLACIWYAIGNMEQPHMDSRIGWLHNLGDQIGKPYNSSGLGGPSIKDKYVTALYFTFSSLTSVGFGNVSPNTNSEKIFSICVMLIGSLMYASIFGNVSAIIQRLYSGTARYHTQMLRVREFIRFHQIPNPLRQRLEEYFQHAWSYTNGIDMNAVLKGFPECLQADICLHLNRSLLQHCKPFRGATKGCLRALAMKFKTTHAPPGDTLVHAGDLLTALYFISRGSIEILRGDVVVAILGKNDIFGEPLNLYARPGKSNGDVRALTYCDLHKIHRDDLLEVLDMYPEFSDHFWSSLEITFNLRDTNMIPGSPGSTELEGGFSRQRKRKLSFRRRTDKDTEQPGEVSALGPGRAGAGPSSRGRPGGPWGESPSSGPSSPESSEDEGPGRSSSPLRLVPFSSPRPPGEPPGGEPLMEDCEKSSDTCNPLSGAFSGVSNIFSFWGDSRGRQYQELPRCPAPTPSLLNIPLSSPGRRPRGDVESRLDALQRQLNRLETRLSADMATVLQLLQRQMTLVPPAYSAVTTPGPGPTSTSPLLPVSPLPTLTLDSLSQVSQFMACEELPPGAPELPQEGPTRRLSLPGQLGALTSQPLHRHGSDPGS

In the case of VKFNKPFVFLMIEQNTK [SP16], the “IC50 value (µM), hERG FastPatch assay” value was > 25 µM.
